According to patent US20220259318A1 (Hoffmann-La Roche, published 2022):
Residue numbers refer to the chain shown, from its start. “And” between values parts separate entries of the source, which are not always exact repeats. Equal values may be shown once.

B1: P1AE5720 (antibody, V domains shown)
VH: EVQLLESGGGLVQPGGSLRLSCAASGFTFSKYAMAWVRQAPGKGLEWVASISTGGVNTYYADSVKGRFTISRDNSKNTLYLQMNSLRAEDTAVYYCATHTGDYFDYWGQGTMVTVSS
VL: DIVMTQSPDSLAVSLGERATINCRASQSVSISGINLMNWYQQKPGQQPKLLIYHASILASGVPDRFSGSGSGTDFTLTISSLQAEDVAVYYCQQTRESPLTFGQGTRLEIK
notes: Humanized 5E11 IgG; PGLALA Fc implied by the CAR-J assay; also called 5E11_VH1c + 5E11_VL1a
B2: P1AE5712 (antibody, V domains shown)
VH: B1 VH with A61R, G66A
VL: DIQMTQSPSSLSASVGDRVTITCRASQSVSISGINLMNWYQQKPGKQPKLLIYHASILASGVPSRFSGSGSGTDFTLTISSLQPEDFATYYCQQTRESPLTFGQGTRLEIK
notes: Humanized 5E11 IgG; PGLALA Fc implied by the CAR-J assay; also called 5E11_VH1a + 5E11_VL3a
B3: P1AE5724 (antibody, V domains shown)
VH: B1 VH
VL: B2 VL
notes: Humanized 5E11 IgG; PGLALA Fc implied by the CAR-J assay; also called 5E11_VH1c + 5E11_VL3a
B4: P1AE5731 (antibody, V domains shown)
VH: B1 VH with V2L, S75A
VL: B2 VL with K46Q
notes: Humanized 5E11 IgG; PGLALA Fc implied by the CAR-J assay; also called 5E11_VH1d + 5E11_VL3b
B5: P1AE5719 (antibody, V domains shown)
VH: B1 VH with V2L, A61R, G66A, S75A
VL: B2 VL with K46Q
notes: Humanized 5E11 IgG; PGLALA Fc implied by the CAR-J assay; also called 5E11_VH1b + 5E11_VL3b
B6: P1AE5725 (antibody, V domains shown)
VH: B1 VH
VL: B2 VL with K46Q
notes: Humanized 5E11 IgG; PGLALA Fc implied by the CAR-J assay; also called 5E11_VH1c + 5E11_VL3b
B7: P1AE5721 (antibody, V domains shown)
VH: B1 VH
VL: B1 VL with R24K, A25S
notes: Humanized 5E11 IgG; PGLALA Fc implied by the CAR-J assay; also called 5E11_VH1c + 5E11_VL1c
B8: P1AE5727 (antibody, V domains shown)
VH: B1 VH with V2L, S75A
VL: B1 VL with R24K, A25S
notes: Humanized 5E11 IgG; PGLALA Fc implied by the CAR-J assay; also called 5E11_VH1d + 5E11_VL1c
B9: P1AE5726 (antibody, V domains shown)
VH: B1 VH with V2L, S75A
VL: B1 VL
notes: Humanized 5E11 IgG; PGLALA Fc implied by the CAR-J assay; also called 5E11_VH1d + 5E11_VL1a

These binders were tested against T1, human GPRC5D (human, UniProt Q9NZD1 1-345) (assay: cell-based or functional assay).
T1 sequence (Q9NZD1 whole entry): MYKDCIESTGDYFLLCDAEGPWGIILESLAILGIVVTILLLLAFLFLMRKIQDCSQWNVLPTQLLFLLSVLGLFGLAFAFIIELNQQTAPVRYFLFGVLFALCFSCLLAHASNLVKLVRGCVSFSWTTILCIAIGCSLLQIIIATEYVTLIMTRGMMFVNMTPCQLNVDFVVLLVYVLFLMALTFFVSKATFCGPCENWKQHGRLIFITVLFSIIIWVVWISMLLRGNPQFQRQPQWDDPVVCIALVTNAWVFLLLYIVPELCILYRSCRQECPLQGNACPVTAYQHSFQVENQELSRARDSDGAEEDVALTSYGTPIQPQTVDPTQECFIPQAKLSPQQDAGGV

CAR-J2 EC50 [ng/mL] (PGLALA-CAR-J activation, L363 target cells) | Binder
6.3 ng/mL | B1
16.1 ng/mL | B2
3.6 ng/mL | B3
2.3 ng/mL | B4
2.8 ng/mL | B5
10.9 ng/mL | B6
25 ng/mL | B7
6.3 ng/mL | B8
37.8 ng/mL | B9

What follows are binders tested against T1, human GPRC5D (assay: cell ELISA, CHO hu GPRC5D (EC/IC50 rel)).
Procedure: Stable transfected CHO clones expressing either human GPRCSD or cynomolgus GPRCSD or murine GPRCSD or human GPRCSA were used to analyze the binding of potential lead candidate antibodies as IgGs. In detail, 10⁴ cells (viability≥98%) were seeded into 384 well-microtiter plates (BD Poly D-Lysin, #356662, volume: 25 μl/well) using fresh culture medium. After overnight incubation at 37° C., 25 μl/well dilutions of antibodies were added (15×1:3 dilutions in 1×PBS, assay conc. starts at 30 μg/ml) to the cells for 2 hours at 4° C. After one washing step using 90 μl/well PBST (10×PBS, Roche, #11666789001+0.1% Tween 20), cells were subsequently fixed by the addition of 50 μl/well 0.05% glutaraldehyde (Sigma Cat. No: G5882 in 1×PBS) for 10 min at room temperature (RT). After three additional washing steps using 90 μl/well PBST, secondary antibodies were added for detection: for human antibodies goat anti-human Ig a chain antibody HRP conjugate (Millipore #AP502P) diluted 1:2000 in blocking buffer (1×PBS (Roche #11666789001)+2% BSA (Bovine Serum Albumin Fraction V, fatty acid free, Roche, #10735086001)+0.05% Tween 20) was used (25 μl/well). […] After incubation for 1 h at RT and three additional washing steps using 90 μl/well PBST, 25 μl/well TMB substrate was added (Roche order no. 11835033001) for 10 min and color development to final ODs was determined by measurement at 370 nm/492 nm.
For the characterization of the humanization variants of the VH and VL domains of the GPRC5D binders the ELISA protocol as described above was used (see Example 7). The data are summarized in the table 10 for the humanization variants of 5E11 and in table 11 for the humanization variants of 5F11.

EC50 | Binder
0.0217 µg/mL and 0.14 nM | B1
0.0131 µg/mL and 0.09 nM | B2
0.0053 µg/mL and 0.04 nM | B3
0.0052 µg/mL and 0.03 nM | B4
0.0166 µg/mL and 0.11 nM | B5
0.0051 µg/mL and 0.03 nM | B6
0.0183 µg/mL and 0.12 nM | B7
0.0087 µg/mL and 0.06 nM | B8
0.0076 µg/mL and 0.05 nM | B9
